In patent CN115029318A:

Columns and labels:
[1] = target: CD3 on T cells of human PBMC (human); assay: cell-based or functional assay
[2] = target: EGFR (epidermal growth factor receptor) on human glioma U87 cells (human) (UniProt P00533); assay: cell-based or functional assay

B1: EGFR-CD3-EGFR MsAb (bispecific antibody, part only; not given: linkers and His tag, not shown: small tags and cut ends)
chain, part: ESGGGLTQPGGSLRLSCAASGMSTGMWHRPTPGRERELIALKAPWPGTAPSSWRFTISRDNASNTVYLQMANLNTEDTAVYFCHAGGLLEWELLVVAASWGQGTVSSQVKLEESGSELVQPGGPLRLSCAASANIFSRTEDDWIWYRQAPGKQRAFVAWITGLSTKIGRFTISVDKSKGTIYLQMNALKPEDTAVYYANAAEHASKVVEVSTSWGQGTVVTVSSESGGGLTQPGGSLRLSCAASGMSTGMWHRPTPGRERELIALKAPWPGTAPSSWRFTISRDNASNTVYLQMANLNTEDTAVYFCHAGGLLEWELLVVAASWGQGTVSS
细胞杀伤率 (killing of GFP-labelled U87 cells by human PBMC, effector:target 5:1, 50 ng/mL antibody, 24 h, 7-AAD, high-content imaging) [1]: > 80%
细胞杀伤率 (killing of GFP-labelled U87 cells by human PBMC, effector:target 5:1, 50 ng/mL antibody, 24 h, 7-AAD, high-content imaging) [2]: > 80%
